Laboratory results reported in publication PMC10527986.

Key:
[1] = target: hMPV pre-fusion F protein (A2 strain; A185P, A113C/A339C, RRRR furin site) (human metapneumovirus, A2 strain) (UniProt Q6WB98); test: SEC
[2] = target: hMPV pre-fusion F protein (A2 strain; A185P, A113C/A339C, RRRR furin site) (human metapneumovirus, A2 strain) (UniProt Q6WB98); test: cryo-EM structure

## hMPV pre-fusion F protein (A2 strain; A185P, A113C/A339C, RRRR furin site) (from UniProt Q6WB98 19-539) (natural protein)
[1]
  stoichiometry N: 3
[2]
  stoichiometry N: 2
